The target of test [1] is MUC16 (CA125), membrane-bound, on tumor cells (human) (UniProt Q8WXI7). Put plainly: flow cytometry on MUC16-positive OVCAR3 cells, anti-FLAG detection.
Test [2] shares this target.

“soluble mesothelin (Meso), secreted FLAG-tagged form of human mesothelin (from UniProt Q13421) (ligand)” displayed a percent of cells positive for the FLAG epitope tag in test [1] of 100%. The substance also yielded a reduction of Meso-TR3 killing of OVCAR3 cells by soluble mesothelin (% cell killing) in test [2] of 40.
